Experimental data published in patent US12485192B2, “Cellular targeted label delivery system” (CELLIS AG, priority 2016, dated 2025).

System: CD45+ leukocyte cells (macrophages, monocytes, lymphocytes, granulocytes)
Test: Uptake of iron binding proteins by CD45+ leukocyte cells in culture
Assay type: cell-based, mouse
Conditions: incubation 1-4 hrs, 0.1-0.2 mg/ml protein solution, standard culture conditions; FIG. 5
Method: Obtained cells are incubated in ferritin solution for a time and at the concentration sufficient to ensure proper ratio of ferritin/cell for their full load and also to ensure proper contrast content to obtain proper imaging). The time and concentration may vary depending on the number of molecules encapsulated/adsorbed into the ferritin cage, status of cell activation, condition and number of their intended administration.
For example, to ensure proper load with ferritins, cells are incubated for 1-4 hrs in ferritin solution 0.2 mg/ml in standard culture conditions. The frame of ferritin concentration may vary at least between 0.01 and 4 mg/ml as well as incubation time (5 min-6 hrs or more). Adjusting time and concentration of ferritin load to cells, the influence of ferritin and treatment conditions on cell viability should be minded.
Obtained cells are incubated in haemoglobin solution for a time and at the concentration sufficient to ensure proper ratio of haemoglobin/cell for their full load and also to ensure proper contrast content to obtain proper imaging. The time and concentration may vary depending on the number of molecules linked with the haemoglobin molecule, status of cell activation, condition and number of their intended administration. […]

B1: ferritins: recombinant mouse ferritin protein of SEQ ID NO: 4 expressed in E. coli (protein)
chain: MTTASPSQVRQNYHQDAEAAINRQINLELYASYVYLSMSCYFDRDDVALKNFAKYFLHQSHEEREHAEKLMKLQNQRGGRIFLQDIKKPDRDDWESGLNAMECALHLEKSVNQSLLELHKLATDKNDPHLCDFIETYYLSEQVKSIKELGDHVTNLRKMGAPEAGMAEYLFDKHTLGHGD
B1 was tested, and the “uptake of iron binding protein by cells” value was “very easily uptake”.
